Here are results for one molecule from patent US5807729A, “Metalloprotease having increased activity” (Novo Nordisk A/S, priority 1995, dated 1998).

Holding throughout (type): biochemical
Data set [1] relates to pro-trypsin-like Fusarium oxysporum protease. As to the kind of experiment: Proteolytic enzyme assay: tryptic activity released from pro-trypsin-like protease, L-BAPNA, 405 nm. As to the method: Metalloprotease activity is measured as released trypsin activity from pro-trypsin-like Fusarium oxysporum protease deposited at the Deutsche Sammlung von Mikroorganismen, Gottingen, Germany under the number DSM 2672, after a 30-60 min pre-incubation at 25° C. in 0.1M Tris, 2 mM CaCl2, pH 7 (at lower pH, 100 mM borate, 10 mM DMG, 2 mM CaCl2 is used).
Metalloproteases contain a catalytic zinc metal center which participates in the hydrolysis of the peptide backbone. The active zinc center differentiates these proteases from calpains whose activities are dependent upon the presence of calcium. Confirmation of a protease as a metallo-protease is loss of proteolytic activity accomplished by removal of the zinc center with 1,10-phenanthroline (1 mM) followed by titration with Zn^2+ (0.1-100 μM) to restore full activity.
However, when combined the metalloprotease cleaves recombinant pro-trypsin-like Fusarium oxysporum protease disclosed, supra to yield the active tryptic protease. Metalloprotease activity is halted upon the addition of 1 mM 1,10-phenanthroline (Table 1).

Data set [2] relates to Ac-Pro-Leu-Gly[2-mercapto-4-methyl-pentanoyl]-Leu-Gly-OEt. Nature of the data set: Hydrolysis of the thermolytic merc-peptide substrate (Ellman's reagent, 405 nm). As to the method: The thermolytic substrate Ac-Pro-Leu-Gly[2-mercapto-4-methyl-pentanoyl]-Leu-Gly-OEt (i.e. the merc-peptide) is also used to further characterize the p45 metalloprotease and B.t. thermolysin.
Reaction mixtures contain 100 microliters of Ac-Pro-Leu-Gly[2-mercapto-4-methyl-pentanoyl]-Leu-Gly-OEt (1 mM, and 1 mM Ellman's reagent) and 100 microliters of either B.t. thermolysin or purified p45 metalloprotease (0-3 ug/ml) in sample buffer.

The test system of data set [3] is FTC-labeled casein. As to the kind of experiment: Protease analysis using FTC-labeled casein. As to the method:
Samples are incubated at room temperature for 30 minutes.

B1: p45 Metalloprotease: metalloprotease purified from Fusarium oxysporum DSM 2672 broth, 45 kDa band; also produced recombinantly in A. oryzae (protein)
chain: MRFSDSLLLIGLSSLAGAHPSRRAPNPSPLSKRGLDLEAFKLPPMAEYVPQDEVPDDVSAKVVTKRADYTETAKDLVKSTFPKATFRMVTDHYVGSNGIAHVNFKQTVNGIDIDNADFNVNIGADGEVFSYGNSFYEGKIPGPLTKRDEKDPVDALKDTVDVLSLPVEADKAKAEKKSKNHYTFTGTKGTVSKPEAKLTYLVDENKELKLTWRVETDIVDNWLLTYVNAAKTDEVVGVVDYVNEATYKVYPWGVNDPSKGSRSTVENPWNLAASEFTWLSDGSNNYTTTRGNNGIAQVNPSGGSTYLNNYRPDSPSLKFEYDYSTSTTTPTTYRDASIAQLFYTANKYHDLLYLLGFTEQAGNFQTNNNGQGGVGNDMVILNAQDGSGTNNANFATPADGQPGRMRMYLWTYSTPQRDCSFDAGVVIHEYTHGLSNRLTGGPANSGCLPGGESGGMGEGWGDFMATAIHIQSKDTRASNKVMGDWVYNNAAGIRAYPYSTSLTTNPYTYKSVNSLSGVHAIGTYWATVLYEVMWNLIDKHGKNDADEPKFNNGVPTDGKYLAMKLVVDGMSLQPCNPNMVQARDAIIDADTALTKGANKCEIWKGFAKRGLGTGAKYSASSRTESFALPSGC
On to B1, for which the “specific activity relative to the conventional Bacillus metalloprotease” value in data set [1] (based on absorbance at 280 nm, preparative IEF fraction, FIG. 2) was “about 10 fold”. Also, the “tryptic activity of the sample alone” value in data set [1] (sample alone) is listed as “do not contain any tryptic activity”. Moreover, the “Tryptic Activity” value in data set [1] (without 1,10-phenanthroline, without Zn2+) was 1.33 Δ Abs/min × 10^-4. Moreover, in data set [2], the “Specific Activity, substrate merc-peptide” value is listed as 57 AU/min*mg and the “effectiveness at hydrolyzing the mercapto-peptide relative to B.s. thermolysin” value was “about 25 fold”. In data set [3], the “Specific Activity, substrate FTC-Labelled Casein” value is 170 FU/min*mg. Further, in data set [3] (on a molar basis at pH 9), the “FTC-casein hydrolysis relative to trypsin-like F. oxysporum protease” value was “approximately 16 fold”.
